Laboratory results from FireProtDB (doi:10.1016/j.jmb.2004.06.010).
“And” between values parts separate entries of the source, which are not always exact repeats. Equal entries are not always repeated.

B1: Alpha-lactalbumin, P00712 (parent)
chain: MMSFVSLLLVGILFHATQAEQLTKCEVFQKLKDLKDYGGVSLPEWVCTAFHTSGYDTQAIVQNNDSTEYGLFQINNKIWCKDDQNPHSRNICNISCDKFLDDDLTDDIVCAKKILDKVGINYWLAHKALCSEKLDQWLCEKL

Variants of: B1
Settings: Capra hircus, pH 7, 25 °C, GdnHCl, CD, sodium cacodylate 50 mM, NaCl 50 mM, structure 1HFY, whole UniProt chain shown

Variant | denaturant m value [kcal/mol/M] | denaturant midpoint (higher = more stable) [M] | unfolding free energy [kcal/mol] | denaturant m value (transition: 3) | denaturant midpoint (higher = more stable) (transition: 3) | unfolding free energy (transition: 3)
W79A | 2.4 | 1.59 | 3.82 | 1.79 kcal/mol/M and 0.61 kcal/mol/M | 1.58 M and 1.65 M | 2.82 kcal/mol and 1 kcal/mol
W137F | 2.12 | 2.49 | 5.27 |  |  | 
Y122F | 1.82 | 1.76 | 3.2 | 1.3 kcal/mol/M and 0.52 kcal/mol/M | 1.64 M and 2.07 M | 2.13 kcal/mol and 1.08 kcal/mol
K112A | 2.12 | 1.83 | 3.88 | 1.51 kcal/mol/M and 0.61 kcal/mol/M | 2.07 M and 1.24 M | 
V46A | 2.7 | 1.81 | 4.88 | 1.9 kcal/mol/M and 0.8 kcal/mol/M | 2.17 M and 0.94 M | 
V27A | 2.1 | 2.26 | 4.74 | 1.48 kcal/mol/M | 2.76 M | 4.1 kcal/mol
V109A | 2.22 | 2.99 | 6.63 | 1.64 kcal/mol/M and 0.58 kcal/mol/M | 3.5 M and 1.54 M | 
I114V | 1.92 | 1.92 | 3.69 | 1.21 kcal/mol/M and 0.71 kcal/mol/M | 2.46 M and 1 M | 
L31A | 2.6 | 1.21 | 3.17 |  | 1.37 M and 0.62 M | 
I74V |  |  |  | 0.62 kcal/mol/M and 0.75 kcal/mol/M | 2.38 M and 1.04 M | 1.48 kcal/mol and 0.78 kcal/mol
L71A | 2.03 | 1.15 | 2.34 | 1.52 kcal/mol/M and 0.51 kcal/mol/M | 1.16 M and 1.13 M | 
L129A | 2.29 | 2.38 | 5.45 | 1.69 kcal/mol/M and 0.6 kcal/mol/M |  | 
L124A |  |  |  | 2 kcal/mol/M and 0.74 kcal/mol/M | 2.55 M and 1.22 M | 
D106N | 2.18 | 2.07 | 4.51 | 0.72 kcal/mol/M | 1.49 M | 1.08 kcal/mol
L115A | 1.72 | 2 | 3.44 | 1.09 kcal/mol/M and 0.63 kcal/mol/M |  | 
I108V | 1.95 | 2.33 | 4.54 | 1.3 kcal/mol/M and 0.65 kcal/mol/M | 2.95 M and 1.09 M | 
